Experimental data from patent US20130011875A1.

Assays:
[1] = target: TNFRII-Fc (tumor necrosis factor receptor 2 ectodomain fused to Fc region of IgG1); assay: cell-based or functional assay
[2] = target: recombinant human Met-granulocyte colony-stimulating factor (rHuMetGCSF) (Homo sapiens) (UniProt P09919); assay: cell-based or functional assay

Chain of TNFRII-Fc (tumor necrosis factor receptor 2 ectodomain fused to Fc region of IgG1) (chain, as listed by the source limits assumed): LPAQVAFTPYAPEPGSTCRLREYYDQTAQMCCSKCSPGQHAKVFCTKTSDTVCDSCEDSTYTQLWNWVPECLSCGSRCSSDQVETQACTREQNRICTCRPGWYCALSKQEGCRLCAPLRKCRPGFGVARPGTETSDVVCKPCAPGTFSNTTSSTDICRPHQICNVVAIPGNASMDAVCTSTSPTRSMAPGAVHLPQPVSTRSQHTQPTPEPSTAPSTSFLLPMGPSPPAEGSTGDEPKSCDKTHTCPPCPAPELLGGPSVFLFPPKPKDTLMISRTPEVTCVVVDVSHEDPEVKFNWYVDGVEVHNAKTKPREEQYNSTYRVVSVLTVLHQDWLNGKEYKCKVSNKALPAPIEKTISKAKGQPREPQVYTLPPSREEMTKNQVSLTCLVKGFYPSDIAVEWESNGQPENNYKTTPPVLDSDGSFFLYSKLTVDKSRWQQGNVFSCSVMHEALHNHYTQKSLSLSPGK

Pichia pastoris vacuolar protein sorting receptor 10-1 (Vps10-1) (from UniProt C4R192 21-1542)
relative TNFRII-Fc titer in deep-well plate supernatant (ELISA), vps10-1 deletion mutants yGLY9992 and yGLY9993 against parental wild-type strain yGLY8292 [1]: 10 fold | relative rhGCSF titer in fermentation supernatant (GCSF ELISA), vps10-1 deletion mutant yGLY9933 against parental strain yGLY8538 [2]: > 7 fold
